In PMC7814660 (Nature, 2020):

Tests used:
[1] = cryo-EM structure superimposition of subunits; conditions: glycan lost; control: wild type
[2] = whole-cell patch clamp, CBX-sensitive current density, +80 mV; conditions: glycan lost; control: wild type
cryo-EM structure [3] = molecular target: the molecule itself; assay: cryo-EM structure
cryo-EM structure [4] = molecular target: the molecule itself; assay: cryo-EM structure; remark: listed apart in the source

B1: Pannexin 1 (hsPANX1): N255A (protein)
parent chain: MAIAQLATEYVFSDFLLKEPTEPKFKGLRLELAVDKMVTCIAVGLPLLLISLAFAQEISIGTQISCFSPSSFSWRQAAFVDSYCWAAVQQKNSLQSESGNLPLWLHKFFPYILLLFAILLYLPPLFWRFAAAPHICSDLKFIMEELDKVYNRAIKAAKSARDLDMRDGACSVPGVTENLGQSLWEVSESHFKYPIVEQYLKTKKNSNNLIIKYISCRLLTLIIILLACIYLGYYFSLSSLSDEFVCSIKSGILRNDSTVPDQFQCKLIAVGIFQLLSVINLVVYVLLAPVVVYTLFVPFRQKTDVLKVYEILPTFDVLHFKSEGYNDLSLYNLFLEENISEVKSYKCLKVLENIKSSGQGIDPMLLLTNLGMIKMDVVDGKTPMSAEMREEQGNQTAELQGMNIDSETKANNGEKNARQRLLDSSC
[1]
  structure_or_conformation: changes
[2]
  other: channel current: changes

B2: glycosylation-deficient mutant N255A of human Pannexin 1 (N255A-hsPANX1) (natural protein, UniProt Q96RD7 1-426, looked up)
chain: MAIAQLATEYVFSDFLLKEPTEPKFKGLRLELAVDKMVTCIAVGLPLLLISLAFAQEISIGTQISCFSPSSFSWRQAAFVDSYCWAAVQQKNSLQSESGNLPLWLHKFFPYILLLFAILLYLPPLFWRFAAAPHICSDLKFIMEELDKVYNRAIKAAKSARDLDMRDGACSVPGVTENLGQSLWEVSESHFKYPIVEQYLKTKKNSNNLIIKYISCRLLTLIIILLACIYLGYYFSLSSLSDEFVCSIKSGILRADSTVPDQFQCKLIAVGIFQLLSVINLVVYVLLAPVVVYTLFVPFRQKTDVLKVYEILPTFDVLHFKSEGYNDLSLYNLFLEENISEVKSYKCLKVLENIKSSGQGIDPMLLLTNLGMIKMDVVDGKTPMSAEMREEQGNQTAELQGMNIDSETKANNGEKNARQRLLDSSC
cryo-EM structure [3]
  ratio of gap junctions to hemichannels: ~0.2 gap junctions : hemichannels

B3: wild type human Pannexin 1 (wt-hsPANX1) (natural protein, UniProt Q96RD7 1-426, looked up)
chain: MAIAQLATEYVFSDFLLKEPTEPKFKGLRLELAVDKMVTCIAVGLPLLLISLAFAQEISIGTQISCFSPSSFSWRQAAFVDSYCWAAVQQKNSLQSESGNLPLWLHKFFPYILLLFAILLYLPPLFWRFAAAPHICSDLKFIMEELDKVYNRAIKAAKSARDLDMRDGACSVPGVTENLGQSLWEVSESHFKYPIVEQYLKTKKNSNNLIIKYISCRLLTLIIILLACIYLGYYFSLSSLSDEFVCSIKSGILRNDSTVPDQFQCKLIAVGIFQLLSVINLVVYVLLAPVVVYTLFVPFRQKTDVLKVYEILPTFDVLHFKSEGYNDLSLYNLFLEENISEVKSYKCLKVLENIKSSGQGIDPMLLLTNLGMIKMDVVDGKTPMSAEMREEQGNQTAELQGMNIDSETKANNGEKNARQRLLDSSC
modifications: N-glycosylated at N255 (N-acetylglucosamine modelled)
cryo-EM structure [4]
  stoichiometry N: 7

B4: caspase 7-cleaved human Pannexin 1 (ΔCTT-hsPANX1) (domain or fragment, UniProt Q96RD7 1-379, looked up)
chain: MAIAQLATEYVFSDFLLKEPTEPKFKGLRLELAVDKMVTCIAVGLPLLLISLAFAQEISIGTQISCFSPSSFSWRQAAFVDSYCWAAVQQKNSLQSESGNLPLWLHKFFPYILLLFAILLYLPPLFWRFAAAPHICSDLKFIMEELDKVYNRAIKAAKSARDLDMRDGACSVPGVTENLGQSLWEVSESHFKYPIVEQYLKTKKNSNNLIIKYISCRLLTLIIILLACIYLGYYFSLSSLSDEFVCSIKSGILRNDSTVPDQFQCKLIAVGIFQLLSVINLVVYVLLAPVVVYTLFVPFRQKTDVLKVYEILPTFDVLHFKSEGYNDLSLYNLFLEENISEVKSYKCLKVLENIKSSGQGIDPMLLLTNLGMIKMDVVD
cryo-EM structure [4]
  binding result: binds
